Measurements: patent publication US7867500B2, “Cofactor that modulates steroid receptor activities” (The United States of America as represented by the …, priority 2004, dated 2011)

Tests used:
Format in all cases: cell-based
CBP = target: T1, CBP (Homo sapiens, UniProt Q92793); assay: Mammalian two-hybrid assay with CBP; conditions: data not shown
T1 construct: expressed in transfected cells; host or cells: CV-1 (the same two-hybrid assay)
Protocol: These assays were conducted as described (He et al., 2002). In particular, the recommended procedure for the Mammalian Matchmaker two-hybrid assay kit (Clontech) was modified slightly by changing from a chloramphenicol acetyltransferase reporter to a Luciferase Reporter pFRLuc (Stratagene), which is under the control of five repeats of the upstream activating sequence for the binding of GAL4.

PRs (B-form) = target: T2, PRs (B-form) (Homo sapiens, UniProt P06401); assay: Mammalian two-hybrid assay with VP16 full length receptor: PR; conditions: 20 nM R5020
T2 construct: expressed in transfected cells; host or cells: CV-1
T2 sequence (P06401 1-933): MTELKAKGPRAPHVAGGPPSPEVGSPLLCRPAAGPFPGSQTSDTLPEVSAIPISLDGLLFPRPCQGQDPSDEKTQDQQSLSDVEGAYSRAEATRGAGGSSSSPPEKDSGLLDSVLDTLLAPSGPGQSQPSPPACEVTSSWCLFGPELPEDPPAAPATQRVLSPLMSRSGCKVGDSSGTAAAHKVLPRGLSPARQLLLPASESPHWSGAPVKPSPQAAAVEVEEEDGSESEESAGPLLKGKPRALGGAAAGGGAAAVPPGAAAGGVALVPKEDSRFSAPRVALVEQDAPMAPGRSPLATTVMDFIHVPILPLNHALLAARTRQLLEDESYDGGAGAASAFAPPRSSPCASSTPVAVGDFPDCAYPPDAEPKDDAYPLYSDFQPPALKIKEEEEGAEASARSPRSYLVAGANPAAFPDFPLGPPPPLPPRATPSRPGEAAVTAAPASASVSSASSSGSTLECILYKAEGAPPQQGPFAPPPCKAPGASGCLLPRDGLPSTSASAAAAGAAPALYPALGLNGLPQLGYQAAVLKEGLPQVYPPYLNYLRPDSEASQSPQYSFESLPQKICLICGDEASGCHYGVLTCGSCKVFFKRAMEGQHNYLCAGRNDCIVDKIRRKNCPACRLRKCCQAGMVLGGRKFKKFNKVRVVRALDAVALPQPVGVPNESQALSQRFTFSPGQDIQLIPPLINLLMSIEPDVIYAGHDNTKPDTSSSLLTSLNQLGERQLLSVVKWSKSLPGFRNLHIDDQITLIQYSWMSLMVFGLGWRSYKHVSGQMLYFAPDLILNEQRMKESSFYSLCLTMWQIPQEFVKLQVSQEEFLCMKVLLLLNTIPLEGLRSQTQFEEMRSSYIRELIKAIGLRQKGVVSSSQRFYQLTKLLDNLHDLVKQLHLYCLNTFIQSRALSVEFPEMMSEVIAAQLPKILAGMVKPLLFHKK
T2 sequence (Q6EMB2 838-1281 F1267S partner limits assumed): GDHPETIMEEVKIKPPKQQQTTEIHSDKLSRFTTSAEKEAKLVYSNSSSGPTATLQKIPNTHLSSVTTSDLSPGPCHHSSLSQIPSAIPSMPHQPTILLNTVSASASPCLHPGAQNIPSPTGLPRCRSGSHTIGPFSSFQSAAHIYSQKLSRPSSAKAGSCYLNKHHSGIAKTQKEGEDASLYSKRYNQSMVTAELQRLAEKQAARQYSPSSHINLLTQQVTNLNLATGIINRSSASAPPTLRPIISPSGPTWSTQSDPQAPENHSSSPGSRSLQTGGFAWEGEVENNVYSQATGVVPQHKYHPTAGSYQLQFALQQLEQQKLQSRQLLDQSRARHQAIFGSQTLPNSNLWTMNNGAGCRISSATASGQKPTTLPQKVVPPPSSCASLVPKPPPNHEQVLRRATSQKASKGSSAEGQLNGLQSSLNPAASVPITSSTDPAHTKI
Protocol: (§1) FIG. 6C1-3 illustrate the association of STAMP with assorted steroid/nuclear receptors, including glucocorticoid receptors (GRs), progesterone receptors (PRs), androgen receptors (ARs), estrogen receptors (ER α or β), PPARγ2 receptors, thyroid receptor beta (TR), and retinoid (α) receptors (RAR α or RXR α). Triplicate samples of CV-1 cells were transfected (as described for FIG. 6B) with GAL, or GAL fused to TIF2.4 or STAMP834C, plus VP16 fused to the indicated full length receptors and incubated with the appropriate steroid (1 μM Dex, 20 nM R5020, 1 nM R1881, 0.1 μM triiodothyronine, or 1 μM estradiol, roziglitazone, or 9-cis-retinoic acid). The average relative luciferase activities of 2-3 experiments±S.E.M. were then plotted. FIG. 6C1 illustrates the effects of STAMP association upon GR, PR and AR induced expression. FIG. 6C2 illustrates the effects of STAMP association upon ERα, ERβ and PPARγ2 induced expression. FIG. 6C3 illustrates the effects of STAMP association upon TR, RARα and RXRα induced expression.
(§2) These assays were conducted as described (He et al., 2002). […]

ERα = target: T3, ERα (Homo sapiens, UniProt P03372); assay: Mammalian two-hybrid assay with VP16 full length receptor: ERα; conditions: 1 μM estradiol
T3 construct: plus VP16 fused to the indicated full length receptors; expressed in transfected cells; host or cells: CV-1
T3 sequence (P03372 1-595): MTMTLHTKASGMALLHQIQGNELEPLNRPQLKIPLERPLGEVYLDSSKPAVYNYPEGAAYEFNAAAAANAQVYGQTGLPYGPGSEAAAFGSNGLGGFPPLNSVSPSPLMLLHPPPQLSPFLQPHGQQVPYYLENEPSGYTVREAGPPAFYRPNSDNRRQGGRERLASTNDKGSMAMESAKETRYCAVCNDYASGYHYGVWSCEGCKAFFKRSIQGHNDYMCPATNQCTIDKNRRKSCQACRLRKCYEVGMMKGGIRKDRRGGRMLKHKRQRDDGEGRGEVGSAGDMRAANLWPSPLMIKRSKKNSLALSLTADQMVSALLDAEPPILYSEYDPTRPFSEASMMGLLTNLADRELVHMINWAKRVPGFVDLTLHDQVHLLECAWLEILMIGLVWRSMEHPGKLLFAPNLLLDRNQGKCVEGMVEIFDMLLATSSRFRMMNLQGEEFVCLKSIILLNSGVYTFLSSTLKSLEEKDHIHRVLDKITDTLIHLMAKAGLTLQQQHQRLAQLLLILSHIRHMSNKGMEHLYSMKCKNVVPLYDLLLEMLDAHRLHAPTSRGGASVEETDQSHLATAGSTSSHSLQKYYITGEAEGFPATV
Protocol: as §1, §2

T1 sequence (Q92793 whole entry): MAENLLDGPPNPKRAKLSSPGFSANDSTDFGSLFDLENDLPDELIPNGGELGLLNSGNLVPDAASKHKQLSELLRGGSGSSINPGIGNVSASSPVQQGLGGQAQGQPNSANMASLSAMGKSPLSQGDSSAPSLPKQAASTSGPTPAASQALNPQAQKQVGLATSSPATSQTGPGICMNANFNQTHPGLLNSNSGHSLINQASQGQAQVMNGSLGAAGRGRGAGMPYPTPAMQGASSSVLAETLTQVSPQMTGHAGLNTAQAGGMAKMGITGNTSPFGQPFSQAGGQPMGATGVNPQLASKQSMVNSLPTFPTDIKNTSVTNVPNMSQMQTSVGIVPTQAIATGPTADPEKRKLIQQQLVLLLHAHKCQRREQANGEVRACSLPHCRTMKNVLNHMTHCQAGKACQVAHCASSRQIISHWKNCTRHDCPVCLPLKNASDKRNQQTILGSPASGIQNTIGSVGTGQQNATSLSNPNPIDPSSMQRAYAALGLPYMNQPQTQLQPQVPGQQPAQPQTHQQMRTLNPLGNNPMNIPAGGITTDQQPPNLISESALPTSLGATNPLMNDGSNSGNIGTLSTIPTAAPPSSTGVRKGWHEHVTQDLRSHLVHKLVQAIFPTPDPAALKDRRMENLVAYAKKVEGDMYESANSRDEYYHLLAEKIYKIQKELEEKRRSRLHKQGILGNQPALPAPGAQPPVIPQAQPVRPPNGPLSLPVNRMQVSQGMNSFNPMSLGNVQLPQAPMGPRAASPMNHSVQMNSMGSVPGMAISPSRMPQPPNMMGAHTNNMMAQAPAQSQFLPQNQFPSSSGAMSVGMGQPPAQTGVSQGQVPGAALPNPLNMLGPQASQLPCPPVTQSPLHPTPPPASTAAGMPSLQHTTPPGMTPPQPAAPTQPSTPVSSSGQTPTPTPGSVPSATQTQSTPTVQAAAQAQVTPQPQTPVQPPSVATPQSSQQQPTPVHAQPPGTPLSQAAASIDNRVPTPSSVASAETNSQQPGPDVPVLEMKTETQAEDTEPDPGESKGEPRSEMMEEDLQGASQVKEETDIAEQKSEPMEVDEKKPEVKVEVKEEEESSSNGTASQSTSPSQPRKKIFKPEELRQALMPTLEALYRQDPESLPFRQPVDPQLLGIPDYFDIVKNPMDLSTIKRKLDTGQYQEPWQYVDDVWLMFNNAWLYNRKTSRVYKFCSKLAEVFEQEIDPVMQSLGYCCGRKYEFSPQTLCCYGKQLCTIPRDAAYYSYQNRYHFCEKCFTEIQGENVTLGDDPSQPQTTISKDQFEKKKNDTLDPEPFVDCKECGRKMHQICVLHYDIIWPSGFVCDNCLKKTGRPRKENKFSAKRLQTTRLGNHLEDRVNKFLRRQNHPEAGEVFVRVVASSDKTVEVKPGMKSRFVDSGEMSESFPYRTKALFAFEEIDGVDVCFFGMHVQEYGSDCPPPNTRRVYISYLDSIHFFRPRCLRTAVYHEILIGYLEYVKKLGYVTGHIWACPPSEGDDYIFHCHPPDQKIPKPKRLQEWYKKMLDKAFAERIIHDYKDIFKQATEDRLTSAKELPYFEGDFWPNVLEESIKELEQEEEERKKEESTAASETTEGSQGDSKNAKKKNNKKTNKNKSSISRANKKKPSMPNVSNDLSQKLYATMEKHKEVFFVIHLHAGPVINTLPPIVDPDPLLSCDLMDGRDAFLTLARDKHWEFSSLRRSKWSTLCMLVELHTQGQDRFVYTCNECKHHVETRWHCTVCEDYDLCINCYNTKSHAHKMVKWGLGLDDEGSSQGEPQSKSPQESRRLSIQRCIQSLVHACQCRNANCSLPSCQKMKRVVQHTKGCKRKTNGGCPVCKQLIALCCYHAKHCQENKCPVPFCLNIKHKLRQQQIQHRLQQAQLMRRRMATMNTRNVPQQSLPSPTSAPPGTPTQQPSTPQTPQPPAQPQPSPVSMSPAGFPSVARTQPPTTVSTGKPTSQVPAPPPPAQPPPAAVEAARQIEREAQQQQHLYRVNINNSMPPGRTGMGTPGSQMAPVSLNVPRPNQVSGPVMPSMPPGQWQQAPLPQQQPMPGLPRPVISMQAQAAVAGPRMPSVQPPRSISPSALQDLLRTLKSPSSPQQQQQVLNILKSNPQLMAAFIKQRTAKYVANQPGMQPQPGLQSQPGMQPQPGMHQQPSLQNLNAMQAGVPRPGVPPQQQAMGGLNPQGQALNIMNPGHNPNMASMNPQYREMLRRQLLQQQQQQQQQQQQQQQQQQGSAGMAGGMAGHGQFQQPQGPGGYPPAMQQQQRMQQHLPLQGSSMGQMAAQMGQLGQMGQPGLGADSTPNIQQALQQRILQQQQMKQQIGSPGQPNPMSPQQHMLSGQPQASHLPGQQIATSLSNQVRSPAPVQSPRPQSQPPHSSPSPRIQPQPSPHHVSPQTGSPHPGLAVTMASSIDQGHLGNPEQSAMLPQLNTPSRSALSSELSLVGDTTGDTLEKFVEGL

B1: 6-6CL1: STAMP fragment amino acids 623-834, coactivator interaction domain (CID) (protein)
chain: ENTPKENSMKVREWNNKGGHCCKLETQELEPKFNLMQILQDNGNLSKMQARIAFSAYLQHVQIRLMKDSGGQTFSASWAAKEDEQMELVVRFLKRASNNLQHSLRMVLPSRRLALLERRRILAHQLGDFIIVYNKETEQMAEKKSKKKVEEEEEDGVNMENFQEFIRQASEAELEEVLTFYTQKNKSASVFLGTHSKISKNNNNYSDSGAKG
- association with CBP (CBP): negligible association

B2: STAMP834C: STAMP fragment amino acids 834-1277, receptor interaction domain (RID) (protein)
chain: GDHPETIMEEVKIKPPKQQQTTEIHSDKLSRFTTSAEKEAKLVYSNSSSGPTATLQKIPNTHLSSVTTSDLSPGPCHHSSLSQIPSAIPSMPHQPTILLNTVSASASPCLHPGAQNIPSPTGLPRCRSGSHTIGPFSSFQSAAHIYSQKLSRPSSAKAGSCYLNKHHSGIAKTQKEGEDASLYSKRYNQSMVTAELQRLAEKQAARQYSPSSHINLLTQQVTNLNLATGIINRSSASAPPTLRPIISPSGPTWSTQSDPQAPENHSSSPGSRSLQTGGFAWEGEVENNVYSQATGVVPQHKYHPTAGSYQLQFALQQLEQQKLQSRQLLDQSRARHQAIFGSQTLPNSNLWTMNNGAGCRISSATASGQKPTTLPQKVVPPPSSCASLVPKPPPNHEQVLRRATSQKASKGSSAEGQLNGLQSSLNPAASVPITSSTDPAHTKI
- interaction with agonist-bound, full length PR (PRs (B-form)): interacted
- interaction with estrogen receptor α (ERα): lack of interaction
